From the DeepSol protein solubility set

test: soluble on expression in E. coli; label from the status in PepcDB or PDB records

Sequence	soluble on expression in E. coli
MSDNLSARWHRILDMTNRETSDDVVIARSSFDDFSQSTPWRKFEISCGNRSFFVNPGWLAELSPYFADELYVRKPNVQRYVIDQATPDEVLEFLRCITFCPMRKPLTVKNVSLVLTFANRFEMRPVQARCENFIAQNATSLSRDKTKLFQVTCAMSQCDPNSSTMSVLVDKLAGIKDDELSRLHFAEMPGDVVAEVYAQKIQRTKDKKAQRQAGASDETAAGCCFMQWASSLFNRRRQRNQADQSILPPSGDQQHHRSELHA	not soluble
MAKKMKLSDITNMFAGMDVEALEGVTIEGDIEIDLGGLGGGFDPMLAAALGQESAVLAQHFARIAGMFGYPVGIGAPAAPAISPALAAPKLKDLIPAKFDVANIAEWATQIQEVPIGNTSADGGSRGKRVLVGGEKALPFFPDAPMPNRNQVTIDVFDMRIGLAKAVKENYDEVMDSPGEWAKKNVEKFNADMITIHLISTDPLVKDTPPKEAAKTVEEVLQAVDVPIAIGGSGNPQKDPEVLARAAEVAEGERCLLASASLNLDYAAIAEAALKYDHDVLSWTQLDMNAQKELNRKLMKQCNVPRDRIIMDPTTAALGYGLDYAYTNMERIRLAALMGDDELTFPMSSGTTNAWGARESWMVGSPLKEDSDWGPREYRGPIWEIVTGLSLAIAGNDLFMMMHPTSVAVLKQITQTLFGTIDTEQVDIANWIGAEV	not soluble
MAGDPMLLTGTLKREAGNKMGQKPKIAIFGGGTGLSVLLRGLKHKPVDITAIVTVADDGGSSGRLRNELKIPPPGDIRNVLAALSDVEPLVEDLFQHRFNKGNDLTGHSLGNLILAAMTNITGDFFHAVTEMSKVLNVRGKVLPAANASVVLHAEMEDGRVVSGESTIPEYGQRIKRVFLTPEQIDPLPETIDVIREADLIIIGPGSLYTSILPNLLVPKIGEEVIKAPAKKVYICNVMTQPGETLHYTAADHVKALNQHMGCGFIDTILVNSEDIPDEIKRKYEMESARPVDFDIEELKAMGLEVIRDQIVTYKNDVIRHDTHKVASLLVDLLKELEHHHHHH	soluble
MRKALKDSKRIVVKVGTSTLTYENGSVNLMRIEKLSRVISDICNMGKEVVLVSSGAIGVGVGKLRLEKKPETIREKQAVAAVGQCALMHIYNKFFGEYSHVVAQVLLTRDVLENERMKNNVCNTFDTLLEKGIIPIVNENDAISIDEIQNILNFGDNDNLSAIVSTLVNADTLIILSDIDGFYDSDPRTNEDSKMLKEVYEITPEIEECAGGAGSNRGTGGMVTKLSAAKVATSNGIDMILANGENPEILIDILNGEDIGTMFVAKKGELEHHHHHH	not soluble
MTNGFPILRLPSKPLRSILQTMKFVELVSISFTSKVAKRHVKALNMKVSYINMFLSRLTIRLVVNFNGTLPLNFRIPDRNVSEPRKLNKKLNYMKVKEGPIFEETEVFEWKPSGIRFKEIANHVLEIFHKSEFSTLMISHDYDYKTMLQELKDFKIRKLCISSDRIQNSELRRNLLEKYSRQFRELALDYHSLKPQEFHLIVSISYNNCYLYKVPMKLEDLLVSNIFLMCIDKPCPLKQLCLFLKHWINGSNDRLEYLEMNLPANSTKTQFISIALNGIDYQLASTDKEWESANNGLIKTTVVKTGGFDIRQNDGTIATVTVDETFQKLRMFVWK	not soluble
MTEQLKDFDVAEHLTSEEEIQLYLNEILQEDNIELILSALGDIARARNMSQIARDAGISREGLYKALSGTGNPTFATVMKVMKALNLQFQVQQSRFA	not soluble
MSLVKIVDVAKAANVSPAVVSRILSNDSKLVVREETRARVQQAIEALGYTPNLQARGLRLSRSNTLAMIVPELNSPVFPVIIQGAQRAAWERGYSLLVGGMGGEEEDPKVAGRLLRSNRIDGLLVTTGRHEAQMLQELATLNAPFVLVNRYLDDQHPYVELDERGAAAAITRHFIELGHRRIAFLGGLQRRVGERRVAGYADALAEAGLPWVPQLVVDAGYYKPGGEDGLRQLLALDEPPTAVVATNEIVAAGAMAAAHRQGVRIPRDLSIASFSDGIVAELLSPALTAVRFPLERMGYLATAMLVDIVEGRGAPQAGLCLPHESVVVRDSTARPPGRKARAATREGHHHHHH	not soluble
MGSHHHHHHMGQSVEVEILLNDAESRKRAEHKTEDGKKEKYFLFYDGETVSGKVSLSLKNPNKRLEHQGIKIEFIGQIELYYDRGNHHEFVSLVKDLARPGEITQSQAFDFEFTHVEKPYESYTGQNVKLRYFLRATISRRLNDVVKEMDIVVHTLSTYPELNSSIKMEVGIEDCLHIEFEYNKSKYHLKDVIVGKIYFLSVEIKIKHMEIDIIKRETTGTGPNVYHENDTIAKYEIMDGAPVRGSSIPIRLFLAGYELTPTMRDINKKFSVRYYLNLVLIDEEERRYFKQQEVVLWRKGDIVRKSMSHQAAIASQRFEGTTSLGEVRTPGQLSDNNSRQ	soluble
MAAVTELPKMNQELAGAVREGLELKKVETTEKNVLPTKEDVAEEKQHVERIHEIEHFDSTKLHSTPVKEKIVLPSADDIKQEKQHLELTDKINNFPSENLKKTETIEKNVLPSPTDVAREKTLQMAASFDKSALHHVETIVSTDVRVTEAQ	soluble
MGSDKIHHHHHHMVKTSQLPAVDRTVPLEQISQFAEKVTIFTDELRETILAPRPRKTAPIFKTGEIAEMCNISHSQVQYLATKGDGELPPGTAAGTGRTRTFTLQEARTWVQKVSDIYQTPLVTGTREPEGKIIITAQLKGGSAKTTTTMCLAQGLTLRGRKVLVVDLDPQASLSELCGLYAEKDVSPEDSVLPYIYDQQIEGGLQSRVQSTYWDGLDLIPAHTELIGAEFHLPAMQKIKPGFRFWTVLREGLEPLRKHYDYILMDTSPSLSYMNLNALLAADAMVMPMVPENLDFISSLSFWRLFSDVSKSFIKYEADKKYDFVSLLLSRVDYGRTSSAPIVRAWAQSAYESWLHSIEVPASSVMSTGALAFSTVFDVSSTHSAAKSLQRVRQPIVDYCRWLDEIYAEKWRSAQ	not soluble
MGSDKIHHHHHHMVNNVDVYYEGWGERWQWGRLASSTALTGRPLIMFEYSEEAIRRGLELSSLRLPLNGPRLSRGFPSYQLGLPGPVYDALPDGWGMLLMDRLFRLRGLNTARIGPLERLTYIGSNAMGAMSFEPSQPEASAVSEDIPLAQLSAEVQEVLDGEGGEFLQRLLQMGGSPQGARPKALLYCDPDTKTLTTSAASGLDAWLFKFPAKQEHPEVCAIEAVYAQCLRECHIHTPDTEYIELPNGQAAFASRRFDRQNGLRIPMQSLAAFTEANYQSPGSLDYANFLRATQICTNDVREKVLAFERVVFNVIFNNRDDHTKNFAYIMSSSGQWKLAPAYDVTYCEGPGGYHQMDVMGEALEISRELIHRLGVQEADLTSSQVDIIIEQYGEVAASFAKRAAGMFPGCITQDTLRTIQDRINDNIRCLQKR	not soluble
IGEVDLTVRANMTYSKNEIKEYDEENSRYPYKMKYGFRVDQARGLIAEGLFKDYEEIRNRPSQGSGIMPGDIKYKDVNGDGVINGDDEVPIGATTRPNLIYGFGVSAQWKEFDINVHFQGAGKSSFFIDGFTVYPFQEKSWGNILTDVVGNYWSLGTNEDPNAKYPRLSYGGNSNNYRASTYWLRNGSYIRLKNVELGYNIPKRFVNKLHLDRVRLYLMGTNLLTFSDFKLWDPELGSSNGQQYPLSRTVTIGLTVGI	not soluble
MKVLVPVKRLIDYNVKARVKSDGSGVDLANVKMSMNPFDEIAVEEAIRLKEKGQAEEIIAVSIGVKQAAETLRTALAMGADRAILVVAADDVQQDIEPLAVAKILAAVARAEGTELIIAGKQAIDNDMNATGQMLAAILGWAQATFASKVEIEGAKAKVTREVDGGLQTIAVSLPAVVTADLRLNEPRYASLPNIMKAKKKPLDEKTAADYGVDVAPRLEVVSVREPEGRKAGIKVGSVDELVGKLKEAGVI	soluble
MAHHHHHHMLPLDSPPVTQLAKEFVNFINEACTPFHAVEVLSSWLSNAGYQRLKEGETWPKLTNGYRYFITRNDSSLVAFSVGGRFVAENGLKIVGAHTDSPNLALKPRTLAGRSDYQGVAVQCYGGGLWHTWFDRDLTVAGRVIISSSKLVKRLVKVNKPIMRIPTLAIHLQSVEERNAFGPNKEKHLVPVIATTLSHTPNGDVSEHHNSQLLILLAESLGCRPSEIVDYDLSVVDTQDAVVGGANDEFIYAPRLDNLISCFCGVKALLESDKTLEEENMIRMVCLFDNEEVGSSTSQGAGGSLVPDVIEYISASGGLRAQLVANSFLMSVDGAHAVHPNYQDKHEEKHRPLIHRGPVIKYNANMRYATNGVTAAIVKAIAKRASVPIQEFCVKNDSPCGSTIGPILSSLSGIQTVDLGNPMLSMHSIREMCGTADLLHLKNLLEAFFNHYTRDMVTS	not soluble
MANLVYSPKDILQKEFKTKMMNGYDPIEVDEFLDNVIKDYEAYNKELLSLQEENSRLMAKLDQLSKAQPTPRVAQEVPKSAAVTNFDILKRLSNLEREVFGKKLDETPSTPVTPSAPSMPAEPANHDVDNAQTRQF	not soluble
MAHHHHHHMVFNQDHHEKECADAFVLARDGMSDFEGEKIERAFRGVTAALRFLDYQETTGTSTRSPTGSNSNAEQRSSGSHEPLVSGEDTNYHHVVCLVRSLDGEKENTPVN	not soluble
MGSDKIHHHHHHMTTFHDLPLEERLTLARLGTSHYSRQLSLVDNAEFGEHSLLEGWTRSHLIAHVAYNAIALCNLMHWANTGEETPMYVSPEARNEEIAYGSTLNPDALRNLHEHSVARLDVAWRETSEDAWSHEVLTAQGRTVPASETLWMRSREVWIHAVDLGAVATFGDIPEVILRTLAAEITQKWTSQGAGEGLVLLDEPSSTRYPAAPGQDEVVVSGSLAGIVRYAAGRGSDGVTSSTGEVPEPPRWL	not soluble
MGSDKIHHHHHHMFSPTKLKEKRESQGLSQSQLASSLGISRVSYFNWESGKTKPNQNNLSKLSQILTVDPCYFESEYEIVETYLKLTEKNQKATLHYATELLNKQNEKVVDIPERFAYKVYEKLSAGTGTAYFDDGNYDTVYFNHQFDYDFASWVFGNSMEPTYENGSVALIKQTGFDYDGAIYAIDWDGQTYIKKVYREENGLRLVSLNRNYSDKFAPYDENPRIIGKIVGNFMPLED	not soluble
DMRVVSVNPAARRLLDLPDDYIPIERPLEEVCAKIPFGPDELGEGESRTWRLPTAEVRRITRMRFFDRSFSRLFFSIETLTEELHSAEKEAYEKLIRLIAHEVNNSTAGIIGVLNAVGDAFDDTPHTPEGEVSEAIALCRDRCMAMSRFITRFAEVVKLPDPTLSSVDLVPLCERCILLMQPLAVETGVKMKMCKEQDSCLVRCDAEQIEQVVINLLRNAIESFAQQNDLAVSATKTVLLCLDRHNLLVEDNGQPISDDVATRLFTPFFSTKPNGQGIGLVVIREVLTRHGWSFSLTTDADGRTRFRMAWP	not soluble
MTMIKKIETELLAAKATLSEISGRFKEFSDTQARLSADGDLLGLARLNKEHTGLEDSLLAADDTVRALESRLSVLRQAEYRPQFDKAHKTHLGAVQAETKAAEKLLAAIDAVFSAATDMQNLSDEVAATYHAARDLHNRAGLDHELRWPAPDGQIPIKISDRMNSLRDELVRTIRLYEDRLPQSQSLEGLRIIEQQQEELVRNSGRGFR	soluble
MAHHHHHHMARLKVLNVAEKPSVASSIAEILSKGRPNKIKSCSKYNPVFTFDYKIKNDIWYMYVTSVTGHLTDQKFDDRYKNWHNTDPQELFDAEITVYVEKDKKNIENNLKKYSKECNMLILWLDCDREGEHICFEVINACRITNRKLIIHRAQFSAVTEKDIIHAINNLKEPNKNLAYSVDVRREIDLRMGSIFTRFMTIRYIELVKHETSIISYGPCQFPTLGFVVNRYLDIKNFKNEYYWSIKMKYVYNNDEINPMDDENNYDDHDDEQMDSDSDESDSYYTNNDDSNNYSDETDDYYGD	not soluble
